Measurements: patent US20100004432, “APTAMER AGAINST MIDKINE AND USE THEREOF” (RIBOMIC INC., published 2010)

T1: midkine (full-length) (Homo sapiens, UniProt P21741 P21741:23-143)
T1 sequence: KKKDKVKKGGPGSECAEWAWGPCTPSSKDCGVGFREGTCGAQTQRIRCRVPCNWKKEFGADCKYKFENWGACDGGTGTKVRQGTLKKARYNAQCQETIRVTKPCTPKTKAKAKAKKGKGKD


Experiments:
midkine (full-length) [1] = target: T1, midkine (full-length); test: cell_activity; 500 nM RNA; conditions: tags: expressed in yeast
Procedure: Chem. 276 (19), 15868-15875, 2001). […] 30 μL of 1.5 μM midkine was applied to the outer surface of the membrane of Chemotaxicell (membrane pore diameter 8 μm, manufactured by Kurabo) to immobilize the midkine to the outer surface of the membrane. The midkine-immobilized Chemotaxicell was placed on a 24-well culture plate containing 500 μL of a medium (supplemented with 0.3% bovine serum albumin, Dulbecco's Modified Eagle's medium) supplemented with each RNA aptamer added thereto at 100 nM. 200 μL of UMR106 cells were placed in the inner layer of the Chemotaxicell chamber at a density of 1×10⁶ cells/mL, and cultured at 37° C. for 4 hours. The cells remaining in the inner layer of the Chemotaxicell chamber were removed, and the cells that had infiltrated and adhered to the midkine-applied surface were fixed with methanol. The Chemotaxicell chamber was immersed in a 1% aqueous solution of Crystal Violet for 30 minutes to stain the cells. After the Chemotaxicell chamber was washed with distilled water and dried, the pigment was extracted with a mixed solution of 200 μL of 1% SDS and 1% triton X100. 150 μL of the extract was transferred to a 96-well microplate, and its absorbance at 590 nm was determined.
(§1) The aptamer shown by SEQ ID NO:4 is 77 nucleotides long, having the 2′ position of the ribose of the pyrimidine nucleotide thereof fluoro-substituted. To enable the chemical synthesis, to reduce the toxicity, and to improve the stability in the blood, miniaturization and stabilization of this aptamer were performed. The operations of miniaturization and stabilization were performed on the basis of the secondary structure estimated by the MFOLD program, and the activity was evaluated by a cell migration inhibition experiment. In the cell migration inhibition experiment, the RNA concentration was 100 nM or 500 nM. Since some errors occur in experimental results depending on cell condition, a previously assayed sample was included as a positive control in each measurement.

midkine (full-length) [2] = target: T1, midkine (full-length); test: cell_activity; 500 nM RNA; conditions: tags: expressed in yeast; remark: listed apart in the source
Procedure: 30 μL of 1.5 μM midkine was applied to the outer surface of the membrane of Chemotaxicell (membrane pore diameter 8 μm, manufactured by Kurabo) to immobilize the midkine to the outer surface of the membrane. The midkine-immobilized Chemotaxicell was placed on a 24-well culture plate containing 500 μL of a medium (supplemented with 0.3% bovine serum albumin, Dulbecco's Modified Eagle's medium) supplemented with each RNA aptamer added thereto at 100 nM. 200 μL of UMR106 cells were placed in the inner layer of the Chemotaxicell chamber at a density of 1×10⁶ cells/mL, and cultured at 37° C. for 4 hours. The cells remaining in the inner layer of the Chemotaxicell chamber were removed, and the cells that had infiltrated and adhered to the midkine-applied surface were fixed with methanol. The Chemotaxicell chamber was immersed in a 1% aqueous solution of Crystal Violet for 30 minutes to stain the cells. After the Chemotaxicell chamber was washed with distilled water and dried, the pigment was extracted with a mixed solution of 200 μL of 1% SDS and 1% triton X100. 150 μL of the extract was transferred to a 96-well microplate, and its absorbance at 590 nm was determined.
as §1, with “NO:5” for “NO:4”, “2′-position” for “2′ position”, “nucleotide” for “nucleotide thereof”, “The RNA concentration in” for “In”, “experiment” for “experiment, the RNA concentration”

Row | Binder | activity (midkine (full-length) [1]) | activity (midkine (full-length) [2])
1 | GGGCUACGAGGAGUAGCCGGAAAGAAGGCGGCGUAGC (ssRNA, 2'-F pyrimidines) [SEQ ID NO:18] | 88 % of SEQ 4 inhibition | –
2 | SEQ ID NO:8 (ssRNA, 2'-F pyrimidines) RNA: GGGAGAGGAGAAGAGGAACGCUGUACGAGGAGUAGCCGGAAAGAAGGCGGUGUGUAGCAGGAAUGAGGA | 100 % of SEQ 4 inhibition | –
3 | GGGAGAGGAGAAGAGGAAGUUGCACAGGGGUUGGUGUCGGGUGCAAC (ssRNA, 2'-F pyrimidines) [SEQ ID NO:44] | – | 100 % of SEQ 40 inhibition
4 | SEQ ID NO:11 (ssRNA, 2'-F pyrimidines) RNA: GGGAGAGGAGAAGAGGAACGUGCUCUGCACGAGGAGUAGCCGGAAAGAAGGCGGCGUGCAGAGGACAGGAAUGAGGA | 100 % of SEQ 4 inhibition | –
5 | SEQ ID NO:15 (ssRNA, 2'-F pyrimidines) RNA: GGGAGAGGAGAAGAGGAACGCUGCACGAGGAGUAGCCGGAAAGGGCGGCGUGCAGC | 75 % of SEQ 4 inhibition | –
6 | SEQ ID NO:14 (ssRNA, 2'-F pyrimidines) RNA: GGGAGAGGAGAAGAGGAACGCUACGAGGAGUAGCCGGAAAGAAGGCGGCGUAGC | 100 % of SEQ 4 inhibition | –
7 | GGGAGAGGAGGAGGAAGUGCACAGGGGUUGGUGUCGGGUGCAC (ssRNA, 2'-F pyrimidines) [SEQ ID NO:55] | – | 100 % of SEQ 40 inhibition
8 | GGGAAGGAAAGAGGAAGUGCACAGGGGUUGGUGUCGGGUGCAC (ssRNA, 2'-F pyrimidines) [SEQ ID NO:50] | – | 91 % of SEQ 40 inhibition
9 | GGGAGAGGAGAAGAGGGUGCACAGGGGUUGGUGUCGGGUGCAC (ssRNA, 2'-F pyrimidines) [SEQ ID NO:58] | – | 100 % of SEQ 40 inhibition
10 | GGGAGAGGAGAAGAAAGUGCACAGGGGUUGGUGUCGGGUGCAC (ssRNA, 2'-F pyrimidines) [SEQ ID NO:57] | – | 100 % of SEQ 40 inhibition
11 | GGGAGAGGAGAAGGAAGUGCACAGGGGUUGGUGUCGGGUGCAC (ssRNA, 2'-F pyrimidines) [SEQ ID NO:56] | – | 100 % of SEQ 40 inhibition
12 | GGGAGAGGAGAAGAGGAAGUGUGCACAGGGGUGGUGUCGGGUGCAUAC (ssRNA, 2'-F pyrimidines) [SEQ ID NO:47] | – | 84 % of SEQ 40 inhibition
13 | GGGAGAGGAGAAGAGGAAGUGUGCACAGGGGUUGUGUCGGGUGCAUAC (ssRNA, 2'-F pyrimidines) [SEQ ID NO:48] | – | 60 % of SEQ 40 inhibition
14 | GGGAGAGGAGAAGAGGAAGUGUGCACAGGGGUUGGGUCGGGUGCAUAC (ssRNA, 2'-F pyrimidines) [SEQ ID NO:49] | – | 69 % of SEQ 40 inhibition
15 | GGGAGAGGAACGUACGAGGAGUAGCCGGAAAGAAGGCGGCGUAC (ssRNA, 2'-F pyrimidines) [SEQ ID NO:19] | 94 % of SEQ 4 inhibition | –
16 | SEQ ID NO:12 (ssRNA, 2'-F pyrimidines) RNA: GGGAGAGGAGAAGAGGAACGCUGCACGAGGAGUAGCCGGAAAGAAGGCGGCGUGCAGC | 100 % of SEQ 4 inhibition | –
17 | SEQ ID NO:10 (ssRNA, 2'-F pyrimidines) RNA: GGGAGAGGAGAAGAGGAACGUGCUCUGUACGAGGAGUAGCCGAAAGGCGGUGUGUAGAGGACAGGAAUGAGGA | 81 % of SEQ 4 inhibition | –
18 | SEQ ID NO:16 (ssRNA, 2'-F pyrimidines) RNA: GGGAGAGGAGAAGAGGAACGCUGCACGAGGGUAGCCGGAAAGAAGGCGGCGUGCAGC | 61 % of SEQ 4 inhibition | –
19 | GGGUGCACAGGGGUUGGUGUCGGGUGCAC (ssRNA, 2'-F pyrimidines) [SEQ ID NO:59] | – | 53 % of SEQ 40 inhibition
20 | SEQ ID NO:9 (ssRNA, 2'-F pyrimidines) RNA: GGGAGAGGAGAAGAGGAACGUGCUCUGUACGCCGGAAAGAAGGUGUGUAGAGGACAGGAAUGAGGA | 57 % of SEQ 4 inhibition | –

Row | Binder | activity (midkine (full-length) [1]) | activity (midkine (full-length) [2])
21 | SEQ ID NO:51 (ssRNA, 2'-F pyrimidines) RNA: GGGAAGGAGAGAGGAAGUGCACAGGGGUUGGUGUCGGGUGCACAGUAUAAG | – | 100 % of SEQ 40 inhibition
22 | SEQ ID NO:52 (ssRNA, 2'-F pyrimidines) RNA: GGAAGGAGAAGAGGAAGUGCACAGGGGUUGGUGUCGGGUGCACAGUAUAAG | – | 100 % of SEQ 40 inhibition
23 | SEQ ID NO:53 (ssRNA, 2'-F pyrimidines) RNA: GGGAAGGAAAGAGGAAGUGCACAGGGGUUGGUGUCGGGUGCACAGUAUAAG | – | 100 % of SEQ 40 inhibition
24 | GGGAGAGGAACGCUACGAGGAGUAGCCGGAAAGAAGGCGGCGUAGC (ssRNA, 2'-F pyrimidines) [SEQ ID NO:17] | 68 % of SEQ 4 inhibition | –
25 | GGGAGAGGAGAAGAGGAAGUGCACAGGGGUUGGUGUCGGGUGCAC (ssRNA, 2'-F pyrimidines; 5' single strand (nt 1-18) all G 2'-F and all A 2'-OMe) [SEQ ID NO:54] | – | 100 % of SEQ 40 inhibition
26 | GGGAGAGGAGAAGAGGAAGUGCACCCGGGUUGGUGUCGGGUGCAC (ssRNA, 2'-F pyrimidines) [SEQ ID NO:63] | – | 97 % of SEQ 40 inhibition
27 | GGGAGAGGAGAAGAGGAAGUGCACAGGGGUUGGUGUCGGGUGCAC (ssRNA, 2'-F pyrimidines) [SEQ ID NO:45] | – | 100 % of SEQ 40 inhibition
28 | GGAAGGAGGAAGUGCACAGGGGUUGGUGUCGGGUGCAC (ssRNA, g(F)g(F)a(M)a(M)g(F)g(F)a(M)g(F)g(F)a(M)a(M)g(M)u(F)g(M)c(F)a(M)c(F)a(M)gg(M)g(M)g(M)u(F)u(F)g(M)g(M)u(F)g(M)u(F)c(F)g(F)g(F)g(M)u(F)g(M)c(F)a(M)c(F); F=2'-F M=2'-OMe) [SEQ ID NO:66] | – | 51 % of SEQ 40 inhibition
29 | GGAAGGAGGAAGUGCACAGGGGUUGGUGUCGGGUGCAC (ssRNA, gga(M)a(M)gga(M)gga(M)a(M)g(M)u(F)g(M)c(F)a(M)c(F)aggg(M)g(M)u(F)u(F)g(M)g(M)u(F)g(M)u(F)c(F)gggu(F)g(M)c(F)a(M)c(F); F=2'-F M=2'-OMe) [SEQ ID NO:67] | – | 110 % of SEQ 40 inhibition
30 | GGGAGAGGAGAAGAGGAAGUGCGCGCAGGGGUUGGUGUCGGGCGCGUAC (ssRNA, 2'-F pyrimidines) [SEQ ID NO:46] | – | 92 % of SEQ 40 inhibition
31 | GGGAAGGAGGAAGUGCACAGGGGUUGGUGUCGGGUGCAC (ssRNA, 2'-F pyrimidines) [SEQ ID NO:61] | – | 100 % of SEQ 40 inhibition
32 | GGGAGAGGAGAAGUGCACAGGGGUUGGUGUCGGGUGCAC (ssRNA, 2'-F pyrimidines) [SEQ ID NO:62] | – | 44 % of SEQ 40 inhibition
33 | GGGAAGGAGGAAGUGCACAGGGGUUGGAGUCGGGUGCAC (ssRNA, 2'-F pyrimidines; 2'-OMe on part of purines (5' strand A, stem purines, loop G, A28)) [SEQ ID NO:68] | – | 72 % of SEQ 40 inhibition
34 | GGGAAGGAGGAAGUGCACAGGGGUAGGUGUCGGGUGCAC (ssRNA, 2'-F pyrimidines; 2'-OMe on part of purines (5' strand A, stem purines, loop G, A25)) [SEQ ID NO:69] | – | 60 % of SEQ 40 inhibition
35 | GGGAAGGAGGAAGUGCACAGGGGAUGGUGUCGGGUGCAC (ssRNA, 2'-F pyrimidines; 2'-OMe on part of purines (5' strand A, stem purines, loop G, A24)) [SEQ ID NO:70] | – | 110 % of SEQ 40 inhibition
36 | SEQ ID NO:6 (ssRNA, 2'-F pyrimidines) RNA: GGGAGAGGAGAAGAGGAACGUGCUCUGUACGAGGAGUAGCCGGAAAGAAGGCGGUGUGUAGAGGACA | 110 % of SEQ 4 inhibition | –
37 | SEQ ID NO:7 (ssRNA, 2'-F pyrimidines) RNA: GGGAACGUGCUCUGUACGAGGAGUAGCCGGAAAGAAGGCGGUGUGUAGAGGACAGGAAUGAGGA | 91 % of SEQ 4 inhibition | –
38 | GGGAGAGGAACGCUGCACGAGGAGUAGCCGGAAAGAAGGCGGCGUGCAGC (ssRNA, 2'-F pyrimidines) [SEQ ID NO:13] | 100 % of SEQ 4 inhibition | –
39 | GGGAAGGAGUGCACAGGGGUUGGUGUCGGGUGCAC (ssRNA, 2'-F pyrimidines) [SEQ ID NO:60] | – | 70 % of SEQ 40 inhibition
